# Tested on: T1, NC(=O)C1=CN([C@@H]2O[C@H](COP(=O)(O)OP(=O)(O)OC[C@H]3O[C@@H](n4cnc5c(N)ncnc54)[C@H](OP(=O)(O)O)[C@@H]3O)[C@@H](O)[C@H]2O)C=CC1
# T1 construct: full-length, 712 residues, pESC-URA MCS2, yeast (S. cerevisiae INVSc1) microsomes
# Experiment: cytochrome c reduction, yeast microsomes
# Format: biochemical, Hypericum calycinum
# Details: electron acceptor cytochrome c
# Chain of HcCPR2 (Hypericum calycinum) (chain, as listed by the source): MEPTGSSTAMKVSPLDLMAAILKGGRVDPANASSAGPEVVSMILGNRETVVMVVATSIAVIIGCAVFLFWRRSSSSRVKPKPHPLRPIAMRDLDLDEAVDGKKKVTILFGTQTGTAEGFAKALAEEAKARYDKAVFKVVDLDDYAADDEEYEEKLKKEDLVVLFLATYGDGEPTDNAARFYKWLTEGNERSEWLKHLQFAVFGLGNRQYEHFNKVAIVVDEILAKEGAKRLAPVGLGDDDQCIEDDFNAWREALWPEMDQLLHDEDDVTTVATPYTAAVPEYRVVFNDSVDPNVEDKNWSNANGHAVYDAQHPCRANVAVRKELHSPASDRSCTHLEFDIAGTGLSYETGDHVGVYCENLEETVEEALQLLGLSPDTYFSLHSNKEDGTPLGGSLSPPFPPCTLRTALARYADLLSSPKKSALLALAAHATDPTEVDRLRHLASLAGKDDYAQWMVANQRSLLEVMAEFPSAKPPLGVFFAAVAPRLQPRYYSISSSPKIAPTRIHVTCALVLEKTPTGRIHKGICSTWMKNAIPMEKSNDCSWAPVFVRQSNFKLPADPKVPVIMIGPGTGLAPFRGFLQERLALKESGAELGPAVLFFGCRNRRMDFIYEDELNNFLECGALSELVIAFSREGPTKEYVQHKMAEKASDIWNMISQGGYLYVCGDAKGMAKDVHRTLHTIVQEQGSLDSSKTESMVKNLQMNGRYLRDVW
substance,measurement,value
HcCPR2 (Hypericum calycinum),Km,43.9 ± 6.5 µM

# From publication PMC4858744, “Bifunctional CYP81AA proteins catalyse identical hydroxylations but alternative regioselective phenol couplings in plant xanthone biosynthesis” (Nature Communications, 2016)
